# Measured values taken from the DeepSol protein solubility set.
# Assay: soluble on expression in E. coli; label from the status in PepcDB or PDB records
row,Sequence,soluble on expression in E. coli
1,MGSDKIHHHHHHMLQMIPARPSRALASLSEAYEECRQITARYAKTFYLGTLLMPEAKRQAIWAIYVWCRRTDELVDGPQAAQTNFATLDAWERRLERLFAGEPEDDCDVALVDTLARYPLDIQPFRDMIEGQRMDLLQNRYSTFEDLYTYCYRVAGTVGLMSQPVMGIESTNSRAPWDPTTPPDPTQEALALGIANQLTNILRDVGEDARRGRIYLPQEELAQFNYSEQDLFNGVIDDRWRAFMQFQLDRARDYFEQAERGIRQLSHDARWPVWASLMLYREILDVIEQNNYDVFRKRAYVPTWRKLCSLPVAMLRATVL,not soluble
2,GPLGSPWYYGKVTRHQAEMALNERGHEGDFLIRDSESSPNDFSVSLKAQGKNKHFKVQLKETVYCIGQRKFSTMEELVEHYKKAPIFTSEQGEKLYLVKHLS,soluble
3,MGSDKIHHHHHHMEVAMEKIYYPRTIDSYLLEWKNERAHKPLLLRGARQVGKSSAVRQLGKTFKYFMEVNFERDKEIISVFTGNLKPKEITSRLAAFYGIPVVPGETLLFLDEIQACTPAIHSLWFFYEDYPELHVVAAGSLLEFALKKMAFFGVGRVRSLFMYPMSFDEFLAATGHAGWIEAKRNASPAEPLFEALHGKLVESFRNYLMVGGMPESVQNWVETEDYLKCQQVQDDIMLAYEDDFSKYEEKADPMLLRQTLRSVAQQIGGKFVYSNVQGNYRSEKIKSALELLKDAGLVRPAVHTAANGIPLGAEINEKFVKYIFLDSGLLLRLLGLENTGGTSEMSRLVLVGAASDLVNKGHITEMVAGLELLKYNTPVQRHDLYYWQNLSRGAQAEVDYVIVKDMRVVPLEVKAGTTGSMKSMYQFMEEKHLTYGIRTSLENFGKLEKADIIPLYALSNLYK,not soluble
4,MGHHHHHHGGHMSLKVLDFPSSKKAKELAVKYGYDEFIVRRWLHFFGDETEDIIRAFEEGIPKYIRINTLKIDEKGLLERLESRGFKLKKTEVPYCFEVVEEPYSIGATPEYLMGYYYVMDKSSCIPPLALEPKPGEVVVDLAASPGGKTTFLSMLMENKGAVIAVEPQKERLQPLIDNINRMGAMNVAVINVDGRRVPAMGIKADRVLLDAPCTGEGIIHKDPSRKTDRGKEDILFCSSLQRELVLAAFDCLKEGGVMVYSTCSLTPEENEFVVDFLLERRKGVVEEIEWGDEALALPGVKNEVSKARRFYPHRHQCSGFFVARIRKVGDSKAKPEEGGS,soluble
5,MGSDKIHHHHHHMLRVWVGSKPVGVLDRSGRRGSTFVYDVKADDRDAVSLTMPKRTESWNSEFGLLPIFDMNLPEGALEGKIRTAFAKALGHFDDLDLLAVVGRSQIGRIRFTGMDEELVEDVPFRSIDDLLRARRAGDLYNDLLETYAVHSGVAGVQPKVLVRAREDDPSDGRQSLSVRGATHIVKMWDPDEYPELAANEFFCLMAAQQVGLEVPDFRLSEDGLALVVERFDLTDGSYSGYEDFCALNGVTSKDKYNGGYETKLFKRIKEFVSPENAVGSLEVAFRLFVINCGIRNGDAHLKNFGVVYKDAESPVRLAPVYDLITTRAYIKNDAMALTLDGSTAWPDRKKLDRLGVTRANLRPGRVAEIVEQTCDALSDVSGRVKAYFEESSFPEVGEKMLREWQAGVGSLSEGKTIHLMEALDATSARND,not soluble
6,MGSDKIHHHHHHMQEKKTLTFVVPAYNMTEYLERCVESLIASKRNDDIEVLIVDDGSSDGTLEMAKTFEARNPGIVRAIHQENKGHGGAVNTGIAAASGMYVKVVDADDWVGPESLEQVLAVLRDEVGKDDPLDMLVTNYVYDKVGKRNKHVVNFRHAMEPGKRLTWDDLGHFGLTEYILMHALVYRTAVVRESKMQLPEHTFYVDFIYAYQPFPWVKSLQYLDTPFYHYFIGRDGQSVQTDVMIRRVDQLRLVNQCMVHATPERGTVPDGLYRYMIHFLAIESSVASVFMILSREPENYEKKKAMWADIEAYSPTIYKDVRKKAMSRALNLRGSAGRFVIRKGYFLAEHVVGFN,not soluble
7,MKVTSLDGRQLRKMLRKEAAARCVVLDCRPYLAFAASNVRGSLNVNLNSVVLRRARGGAVSARYVLPDEAARARLLQEGGGGVAAVVVLDQGSRHWQKLREESAARVVLTSLLACLPAGPRVYFLKGGYETFYSEYPECCVDVKPISQEKIESERALISQCGKPVVNVSYRPAYDQGGPVEI,not soluble
8,MGHHHHHHSHMHPWNQQVPDKESGGGSHGNAASSCSRFHYSYAGVHSESTHFSLVLLLDWAMAFILCPLTCPGECEGSTGKLECCLCLPSQWAVLTAAPHPYRWSQEAGRVGEGKIGKTGRPRPRQNSLPSLHFWSPVVMCL,not soluble
9,MHHHHHHSSGRENLYFQGTLSALAVDLGGTNLRVAIVSMKGEIVKKYTQFNPKTYEERINLILQMCVEAAAEAVKLNCRILGVGISTGGRVNPREGIVLHSTKLIQEWNSVDLRTPLSDTLHLPVWVDNDGNCAALAERKFGQGKGLENFVTLITGTGIGGGIIHQHELIHGSSFCAAELGHLVVSLDGPDCSCGSHGCIEAYASGMALQREAKKLHDEDLLLVEGMSVPKDEAVGALHLIQAAKLGNAKAQSILRTAGTALGLGVVNILHTMNPSLVILSGVLASHYIHIVKDVIRQQALSSVQDVDVVVSDLVDPALLGAASMVLDYTTRR,soluble
10,SGRLSVSRQNFEVHKHLNRLNKPAVKSIQSPDGDIIDCVHISKQPAFDHPFLKDHKIQMGPSYTPESLFGESKVSEKPKESVNPITQLWHQNGVCSEGTIPVRRTKKEDVLRASSVKRYGKKKHLSVPLPRSADPDLINQSGHQHAIAYVEGGKFYGAKATINVWEPKVQSSNEFSLSQLWILGGSFGQDLNSIEAGWQVSPDLYGDNNTRLFTYWTSDAYQATGCYNLLCSGFIQINSQIAMGASISPVSGFHNPQYDISITIWKDPKEGHWWMQFGDGYVLGYWPSFLFSYLADSASIVEWGGEVVNMEEDGHHTTTQMGSGQFPDEGFTKASYFRNIQVVDSSNNLKEPKGLNTFTEKSNCYDVEVGKNDDWGHYFYYGGPGRNPNCQ,soluble
11,MVSEQHAVDICLDKLRFYEVLSAHGFPVVPTALSLAELDDGDYVVKERYGAGATNIGLRLTKEEANRHAQKLEAPVFQPFIAGAEFSIDLYMTRTGRVKGAVARTREYVVNGESQITTTIRNEKLEDMCIAVASYLRLYGHAVMQVIIDYEGQFHLIECNPRFGGASTVSLEAGLDSFYWFFLESQGGDLDDYPFSRSMKEKRQIRYPADFVIDL,not soluble
12,MSLDNLALRMRPKTIDQVIGQEHLVGPGKIIRRMVEANRLSSMILYGPPGIGKTSIASAIAGTTKYAFRTFNATVDSKKRLQEISEEAKFSGGLVLLLDEIHRLDKTKQDFLLPLLESGLVIMIGATTENPFFSVTPAIRSRVQIFELEPLSNQDVKEALQIALSNPERGFDFPIELDEDALDFIATSTNGDLRSAFNSLDLAVLSTPENDEGIRHITLDIMENSLQRSYITMDKDGDGHYDVLSALQKSIRGSDVDASLHYTARLIEAGDLPSLARRLTVIAYEDIGLANPEAQIHTVTALDAAQKIGFPEARILIANVVIDLALSPKSNSAYVAMDKALADLKTSGHLPIPRHLRDGHYSGSKELGNAQDYLYPHNYPGNWVKQDYLPEKIRNHHYFQAEDTGKYERALAQRKEAIDRLREGHHHHHH,soluble
13,MGSDKIHHHHHHMTLATMKLQILSDLHIDSYVRQSHPIGHIPKTDADIVLVAGDTANSDIGMPWLQEQAARLQVPLITIAGNHEYFNEDVLHFDKKLATWDNYDSESKQGVQFLQCQYIDIGEVRILGCTLWTDYQYQANEDTMVAALRFMRDYKQIYAGSELFSPEVSMQIHAKQRQWLKQALITAKALGKKTVVMSHHSISPLSVSEKYANLPSNAAFVSDLSQWMYEDWAPALWVHGHTHEAFDYHIHKTRVIVNPRAYPNEVSSTALAFAWDRVIDIG,not soluble
14,RPAPLWAVVADAAVQPAMAAGNDDFETARALDTARELVAGLREGVDSLGGDVAEFKAAIPQHNFEQICDGCFAPIDPGVEPDYVVAHRVSCCMIYHSPTAGKCTSCPHQDKDVRKNALIAASESF,not soluble
15,MAKTITKDSFFHSRLQQFVANSLFPAGAGDWYKNKGYGKKGEVDDEAPFRDFVEKQKTDKKSHYYKEFQGLDLSLKKVKTKLVSGESCQLEVMKCQPESNEPKKPGTGKHIVYFPGANTYYQACFRDISTACKETGATVHAFNFPGTGLSSGKVREANDLINAGISVVSSLIKQGVHPDDIILQGDCYGASIALEVKKQLEDQADIKVRAIMNNVFKSFKAAVCDMITQSPWLPNILKSIVKRLLEFTGWHVTPGKKYKHADPYQCHIQHLGDQTLESSTLSGKVSKYHHEIQTGQTKSQKRAPITDTCPEEYRKDRDELDRKHYVRVKESAKERLASKFGVDKFGRVNAHFADLCELEMLDGQSVYQGFVNDYIARSNAYIEKHPQKGIKEVQDDLRKLHYLQPADSIEITEDEAQDFNTVVDLITEEQQLRHDRFNDNTIGKSISM,not soluble
16,MGSDKIHHHHHHMLSNLVSEFPQHEPRPANAPRALEGIRVVDFTHFIAGPFATMMLADMGAEVIKIEAPGRGDEFRYYPPAHPQDESIGAPYLWANRNKRSIALDLKHEDGRRIARELIATADVVAENFSTGVMERLGLGYEACRESNPELIYCSVSAYGREGAFADRLGFDPVAQAESGFVSMNGYPDRLGVRALSPVMDISTAMMASNAILGALVARERSGKGQAVEVSLFDNAVLMTGYATVQHLFTGDEPQRHGNTSPDTCPSGVFKASDGAFYINCGNNKIFHRLASQVLEMPELAADPVLADRNGRIARRDELFRILDEAFIRHPWAYWQQRMRAASIPCGEVRSVGEALRSAEARERKLVSRLEHPDLGWLPNISLPFRFSETPMEDPSPAPRIGEHSRDILTHVLGYEDDSASALLDSGVVYSSVEKARAG,not soluble
17,MGSDKIHHHHHHMPLPRGSSLVRIPGNIPVGLDMKERLAYFEYDPLVSGQRAYAVAALLPQGFTRTLLPACVGSSGEALLPLLGYAAVGLKEGKIYVAAVQSDEHRKWHPHYYNTERLPAKINRMLKKYPGNMILHQLARCSLEYGCFTAQNIFYQRWEGGIPSMKACNAACIACISEDHCGTASPQNRLDFAPTVQEIVEVASEHLLRARDAIISFGQGCEGEPALNGKRLSQAIRRIRDLCAQGTINMNTNAGYCEGVKLMTDAGMDSMRVTIFSAIEENYMTYHCPQDYSLADVEYSITYAREHGVKISLNLLTFPGFTDRMEEVEALLEFVRKNQVDMIQFRNLNIDPEFLMRIFPGKSPVLGISNFVKLLESELPGVRIGSYTHPVHR,not soluble
18,MASLRDIKAKINSTKKTSQITKAMEMVSASKLNRAEQNAKSFVPYMEKIQEVVASIAQGSKGINHPMLNARPVKRTGYIVITSDRGLAGGYNSNVLRTVSNVIRERHNMDSNQYSIIVLGRLGRDYLKRRGFNIIDEVVGLSDHPSFTDIKDLASRAIAMFADGAYDELYIYYNHYVSKISQEVTENKILPLTDVASDKPTTAYEFEPSEEEILKVLLPQYAESLVYGALLDGKASEHAARMTAMKSATDNAMEVIDSLTLSFNRARQAAITQEITEIVGGAAALE,not soluble
19,MSLENVDPFDIIRQFRSVIAKTSLQASSNIEGLDTVWNSDLVLEANFWHLVEILLSFRTSQEFLDKESSISSKPYNSSIIFEKELLQKDKNLYQIWLIIVWIEGNFPFVEKPSNIPSSKWTNTLVTSGLMSSDLDYPLRDCSVVINDKDKADDHVFYKYVYELLLCGNYDQIFEECKLSDNITLNMIMCGMQEYVDPSIDVQLKDEFEVQQGVKKHSLWRRAVYSLSQNDKLDKYERAIYSYLAGDIPNDEVLQTLNWDSELLVYLNQILKIEVENYLLQNGKVNNDELILSLPSNTMDLQSILNLLSAKHPEESEHPIRVLIGSVMLNTIPSVLHSSVSMLMNVVTGIENDNDIFGEPYLLRVVTHMTIFLEILNPGTISESDKTKLITAYISILKSQELYDLIPIYISFLSHNEAIEASSFILSNLEGKDIRKKQLEICNFLKLPVEDMLKRTTQCVFAETEGHHHHHH,not soluble
